± gives the standard error.
B1: library; numbered along this chain (parent)
chain: MATDAALRRLLRLHRTEIAVAVDSAFPLLHALADHDVVPEDKFQETLHLKEKEGCPQAFHALLSWLLTQDSTAILDFWRVLFKDYNLERYGRLQPILDSFPKDVDLSQPRKGRKPPAVPKALVPPPRLPTKRKASEEARAAAPAALTPRGTASPGSQLKAKPPKKPESSAEQQRLPLGNGIQTMSASVQRAVAMSSGDVPGARGAVEGILIQQVFESGGSKKCIQVGGEFYTPSKFEDSGSGKNKARSSSGPKPLVRAKGAQGAAPGGGEARLGQQGSVPAPLALPSDPQLHQKNEDECAVCRDGGELICCDGCPRAFHLACLSPPLREIPSGTWRCSSCLQATVQEVQPRAEEPRPQEPPVETPLPPGLRSAGEEVRGPPGEPLAGMDTTLVYKHLPAPPSAAPLPGLDSSALHPLLCVGPEGQQNLAPGARCGVCGDGTDVLRCTHCAAAFHWRCHFPAGTSRPGTGLRCRSCSGDVTPAPVEGVLAPSPARLAPGPAKDDTASHEPALHRDDLESLLSEHTFDGILQWAIQSMARPAAPFPS

Variants of: B1
Experiment: AIRE transcriptional activation functional score (insulin promoter-GFP; nonsense median 0, synonymous median 1) (normalised score); higher = higher AIRE activity (more reporter activation)
Details: with insulin promoter-GFP reporter in HEK293
Method in brief: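 Integration of codon-optimized AIRE NNN-codon libraries (three regions) by Bxb1 recombinase was done in Flp-In T-REx HEK293 landing-pad cells containing an insulin core promoter-GFP reporter. Tile-sequencing covered the top 10% GFP cells and the unselected integrants, drawn from mCherry+, BFP− cells sorted at day 7 and grown 7 days. Functional score means the enrichment of a variant in select versus non-select, minus that of wild type. Variants with at least 10 counts per million in non-select were rescaled to nonsense median 0 and synonymous median 1, and the biological replicates were averaged.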

AIRE transcriptional activation functional score: each site, then its substitutions
T391: S 0.957 ± 0.28; E 0.539 ± 0.13; C 0.542 ± 0.084; F 1.41 ± 0.22; V 1.16 ± 0.17; D 0.889 ± 0.36; Y 1.45 ± 0.44; K 0.54 ± 0.28; H 1.17 ± 0.07; Q 0.725 ± 0.055; L 1.06 ± 0.41; A 1.09 ± 0.15; G 0.941 ± 0.15; R 1.15 ± 0.23; I 1.29 ± 0.07; M 1.02 ± 0.17; W 1.58 ± 0.076; P 0.882 ± 0.38
H396: A 0.663 ± 0.22; V 1.25 ± 0.42; L 1.69 ± 0.1; Q 1.12 ± 0.14; C 1.33 ± 0.047; I 1.17 ± 0.26; G 0.899 ± 0.12; S 0.606 ± 0.35; K 1.61 ± 0.096; E -0.185 ± 0.093; R 1.03 ± 0.087; N 1.09 ± 0.083; P 1.02 ± 0.38; T 0.549 ± 0.24; F 1.15 ± 0.14; W 1.28 ± 0.058; D 0.156 ± 0.53; Y 1.44 ± 0.066
V393: Y 0.561 ± 0.21; L 1.2 ± 0.14; R 0.0991 ± 0.16; E 0.991 ± 0.2; M 0.98 ± 0.089; A 1.04 ± 0.068; T 1.14 ± 0.18; W 1.67 ± 0.17; Q -0.242 ± 0.092; C 1.11 ± 0.028; G 1.28 ± 0.04; N 1.09 ± 0.029; D 0.48 ± 0.17; P 0.254 ± 0.38; S 0.746 ± 0.3
P405: Q 0.685 ± 0.17; N 1.22 ± 0.071; F 1.03 ± 0.048; V 1.21 ± 0.08; I 1.59 ± 0.059; Y 1.17 ± 0.34; E 0.742 ± 0.073; K 1 ± 0.19; R 0.984 ± 0.21; C 1.59 ± 0.17; G 0.341 ± 0.094; S 1.05 ± 0.31; H 1.04 ± 0.12; T 1.16 ± 0.16; L 0.801 ± 0.35
P400: V 0.815 ± 0.2; S 0.846 ± 0.29; R 1.16 ± 0.18; W 1.89 ± 0.07; I 0.76 ± 0.28; A 1.56 ± 0.13; H 0.71 ± 0.14; C 0.972 ± 0.39; Y 1.69 ± 0.045; T 0.851 ± 0.33; E 0.545 ± 0.17; L 0.451 ± 0.31; D 0.319 ± 0.071; G 1.13 ± 0.12; N 0.58 ± 0.082; F 0.712 ± 0.24; Q 1.52 ± 0.52
P398: E 0.984 ± 0.074; T 1.21 ± 0.21; S 0.979 ± 0.31; V 1.31 ± 0.1; N 0.615 ± 0.095; Y 1.69 ± 0.068; Q 1.31 ± 0.16; K 1.04 ± 0.097; M 0.82 ± 0.099; D 0.585 ± 0.029; R 0.958 ± 0.22; I 1.23 ± 0.12; G 1.14 ± 0.24; F 1.43 ± 0.31; C 0.359 ± 0.058; L 1.5 ± 0.24; W 1.64 ± 0.049; H 1.24 ± 0.26; A 1.09 ± 0.16
T390: C 0.472 ± 0.29; K 1.1 ± 0.15; L 1.23 ± 0.45; V 1.25 ± 0.15; Y 1.62 ± 0.034; S 0.817 ± 0.33; R 1.02 ± 0.31; W 1.51 ± 0.07; E -0.73 ± 0.36; G 1.17 ± 0.082; I 0.876 ± 0.28; Q 0.868 ± 0.086; A 0.741 ± 0.31; D 0.833 ± 0.089; F 1.29 ± 0.24; P 0.842 ± 0.15; N 1.09 ± 0.16
S402: P 1.07 ± 0.09; L 0.984 ± 0.3; K 0.894 ± 0.2; D 0.871 ± 0.19; Y 1.17 ± 0.2; V 0.921 ± 0.23; F 0.518 ± 0.41; C 1.1 ± 0.12; Q 0.546 ± 0.66; N 1.13 ± 0.11; G 1.34 ± 0.22; T 0.974 ± 0.18; A 1.05 ± 0.24; E 0.833 ± 0.11; R 1.02 ± 0.21; H 1.48 ± 0.23; M 0.776 ± 0.079; W 1.22 ± 0.079; I 0.78 ± 0.15
Y394: A 0.692 ± 0.2; E 0.49 ± 0.066; D 0.711 ± 0.27; M 1.13 ± 0.056; W 0.755 ± 0.1; F 0.973 ± 0.035; N 0.966 ± 0.38; S 0.848 ± 0.26; H 0.428 ± 0.44; V 0.926 ± 0.18; K 0.301 ± 0.18; C 0.576 ± 0.24; P 1.43 ± 0.084; I 0.972 ± 0.15; T 0.126 ± 0.099; R 0.595 ± 0.12; Q -0.333 ± 0.14; G 0.882 ± 0.15; L 1.07 ± 0.27
L397: E 0.622 ± 0.073; C 0.827 ± 0.18; R 0.938 ± 0.22; M 0.0442 ± 0.18; V 0.641 ± 0.29; Y 0.779 ± 0.18; F 0.99 ± 0.17; S 0.938 ± 0.3; Q 1.36 ± 0.082; N 0.167 ± 0.41; H 0.0686 ± 0.092; D 0.808 ± 0.1; K 0.921 ± 0.032; W 0.989 ± 0.042; G 0.775 ± 0.23; P 0.66 ± 0.19; T 0.852 ± 0.14; A 0.914 ± 0.26; I 0.407 ± 0.24
L406: I 1.19 ± 0.096; A 0.954 ± 0.24; K 0.516 ± 0.18; D 0.772 ± 0.16; E 1.12 ± 0.1; C 1.3 ± 0.17; H 1.19 ± 0.13; G 1.08 ± 0.21; F 0.76 ± 0.32
D389: W 0.0908 ± 0.069; K 0.278 ± 0.3; S 1.24 ± 0.1; I -0.197 ± 0.2; V 0.292 ± 0.13; M -0.143 ± 0.096; H 1.2 ± 0.07; F 0.472 ± 0.1; R 0.387 ± 0.22; N 1.22 ± 0.048; A 1.04 ± 0.42; P 0.951 ± 0.45; Y 0.964 ± 0.08; C 0.869 ± 0.051; Q -0.15 ± 0.18; L 0.218 ± 0.2; G 0.913 ± 0.38; E 0.728 ± 0.51; T 1.23 ± 0.044
L392: M 0.734 ± 0.13; H 0.636 ± 0.29; N 0.909 ± 0.1; I 1.7 ± 0.47; S 1.43 ± 0.11; K 1.14 ± 0.08; V 1.36 ± 0.28; E 0.303 ± 0.068; G 0.912 ± 0.32; W 1.22 ± 0.14; A 0.196 ± 0.14; R 1.06 ± 0.21; P 0.582 ± 0.24; T 0.53 ± 0.1; F 1.15 ± 0.14; Q 1.18 ± 0.099
G387: V 1.5 ± 0.2; Y 1.72 ± 0.1; W 1.52 ± 0.051; S 0.84 ± 0.18; T 1.22 ± 0.16
M388: K 1.05 ± 0.31; D 0.8 ± 0.26; Q 0.232 ± 0.12; N 0.557 ± 0.46; E 0.756 ± 0.16; S 0.824 ± 0.24; I 0.924 ± 0.41; G 0.832 ± 0.22; V 1.49 ± 0.45; R 0.983 ± 0.27; H 1.2 ± 0.39; L 1.17 ± 0.24; C 0.979 ± 0.082; W 1.46 ± 0.11; F 1.15 ± 0.099; P 1.14 ± 0.17; Y -0.0355 ± 0.024; T 0.897 ± 0.22; A 0.871 ± 0.3
P401: I 0.809 ± 0.28; K 1.55 ± 0.13; Q 1.18 ± 0.098; F 0.595 ± 0.05; M 0.689 ± 0.11; N 1.09 ± 0.047; Y 1.14 ± 0.42; V 0.635 ± 0.58; D 1.07 ± 0.31; T 0.717 ± 0.33; L 0.646 ± 0.35; R 1.15 ± 0.12; E 1.49 ± 0.18; S 1.25 ± 0.26; C 1.7 ± 0.066; A 0.611 ± 0.47; H 1.01 ± 0.13; G 1.14 ± 0.17
A403: H 1.02 ± 0.23; G 1.26 ± 0.23; P 0.99 ± 0.26; E 1.14 ± 0.42; M 1.38 ± 0.064; R 0.877 ± 0.27; F 1.09 ± 0.12; S 0.725 ± 0.4; V 1.29 ± 0.082; T 1.14 ± 0.063; C 0.942 ± 0.27; N 1.09 ± 0.056; Q 0.915 ± 0.11; Y 0.507 ± 0.33; D 0.541 ± 0.099; W 1.72 ± 0.033; L 1.29 ± 0.44; K 1.06 ± 0.21; I 1.5 ± 0.21
A399: I 0.768 ± 0.06; E 0.88 ± 0.39; M 1.22 ± 0.046; C 1.18 ± 0.21; N 0.798 ± 0.13; L -0.706 ± 0.96; Q 0.327 ± 0.12; K 0.799 ± 0.062; P 1.38 ± 0.31; Y -0.0769 ± 0.047; W 1.2 ± 0.14; G 0.994 ± 0.14; H 1.63 ± 0.058; T 0.845 ± 0.26; S 0.793 ± 0.36; R 0.779 ± 0.2; F 1.64 ± 0.071; V 0.911 ± 0.24
A404: Y 1.3 ± 0.057; H 1.66 ± 0.044; V 0.729 ± 0.3; M 0.918 ± 0.11; I 0.94 ± 0.23; D 0.792 ± 0.33; W 1.16 ± 0.096; L 1.26 ± 0.15; F 1.26 ± 0.26; S 1.02 ± 0.27; K 1.05 ± 0.12; C 0.451 ± 0.097; T 1.04 ± 0.15; R 1.01 ± 0.27; E 0.954 ± 0.15; Q 0.81 ± 0.25; P 1.28 ± 0.2; G 0.91 ± 0.49
K395: N 0.081 ± 0.31; S 0.558 ± 0.28; L 1.38 ± 0.15; I 0.422 ± 0.1; W 0.234 ± 0.056; C 0.49 ± 0.85; H 0.628 ± 0.22; D 0.353 ± 0.32; Y 1.47 ± 0.13; M 2.5 ± 0.11; E 0.701 ± 0.21; R -0.166 ± 0.49; F 0.828 ± 0.12; V 1.34 ± 0.17; T 0.901 ± 0.52; A 0.786 ± 0.12; Q 1.35 ± 0.054
